These results are taken from patent US20050100540A1, “Platelet-activating factor acetylhydrolase” (priority 1993, published 2005).

To fix the notation:
B1: Wild type: Wild type human PAF-AH expressed in E. coli, reference of Table 8 (protein, UniProt Q13093 22-441, looked up)
Platelet-activating factor …: FDWQYINPVAHMKSSAWVNKIQVLMAAASFGQTKIPRGNGPYSVGCTDLMFDHTNKGTFLRLYYPSQDNDRLDTLWIPNKEYFWGLSKFLGTHWLMGNILRLLFGSMTTPANWNSPLRPGEKYPLVVFSHGLGAFRTLYSAIGIDLASHGFIVAAVEHRDRSASATYYFKDQSAAEIGDKSWLYLRTLKQEEETHIRNEQVRQRAKECSQALSLILDIDHGKPVKNALDLKFDMEQLKDSIDREKIAVIGHSFGGATVIQTLSEDQRFRCGIALDAWMFPLGDEVYSRIPQPLFFINSEYFQYPANIIKMKKCYSPDKERKMITIRGSVHQNFADFTFATGKIIGHMLKLKGDIDSNVAIDLSNKASLAFLQKHLGLHKDFDQWDCLIEGDDENLIPGTNINTTNQHIMLQNSSGIEKYN
B2: C407S: PAF-AH cysteine to serine mutant expressed in E. coli (protein)
chain: MVPPKLHVLFCLCGCLAVVYPFDWQYINPVAHMKSSAWVNKIQVLMAAASFGQTKIPRGNGPYSVGCTDLMFDHTNKGTFLRLYYPSQDNDRLDTLWIPNKEYFWGLSKFLGTHWLMGNILRLLFGSMTTPANWNSPLRPGEKYPLVVFSHGLGAFRTLYSAIGIDLASHGFIVAAVEHRDRSASATYYFKDQSAAEIGDKSWLYLRTLKQEEETHIRNEQVRQRAKECSQALSLILDIDHGKPVKNALDLKFDMEQLKDSIDREKIAVIGHSFGGATVIQTLSEDQRFRCGIALDAWMFPLGDEVYSRIPQPLFFINSEYFQYPANIIKMKKCYSPDKERKMITIRGSVHQNFADFTFATGKIIGHMLKLKGDIDSNVAIDLSNKASLAFLQKHLGLHKDFDQWDSLIEGDDENLIPGTNINTTNQHIMLQNSSGIEKYN
B3: D286A: PAF-AH amino acid substitution product expressed in E. coli (protein)
chain: MVPPKLHVLFCLCGCLAVVYPFDWQYINPVAHMKSSAWVNKIQVLMAAASFGQTKIPRGNGPYSVGCTDLMFDHTNKGTFLRLYYPSQDNDRLDTLWIPNKEYFWGLSKFLGTHWLMGNILRLLFGSMTTPANWNSPLRPGEKYPLVVFSHGLGAFRTLYSAIGIDLASHGFIVAAVEHRDRSASATYYFKDQSAAEIGDKSWLYLRTLKQEEETHIRNEQVRQRAKECSQALSLILDIDHGKPVKNALDLKFDMEQLKDSIDREKIAVIGHSFGGATVIQTLSEAQRFRCGIALDAWMFPLGDEVYSRIPQPLFFINSEYFQYPANIIKMKKCYSPDKERKMITIRGSVHQNFADFTFATGKIIGHMLKLKGDIDSNVAIDLSNKASLAFLQKHLGLHKDFDQWDCLIEGDDENLIPGTNINTTNQHIMLQNSSGIEKYN
B4: S108A: PAF-AH amino acid substitution product expressed in E. coli (protein)
chain: MVPPKLHVLFCLCGCLAVVYPFDWQYINPVAHMKSSAWVNKIQVLMAAASFGQTKIPRGNGPYSVGCTDLMFDHTNKGTFLRLYYPSQDNDRLDTLWIPNKEYFWGLAKFLGTHWLMGNILRLLFGSMTTPANWNSPLRPGEKYPLVVFSHGLGAFRTLYSAIGIDLASHGFIVAAVEHRDRSASATYYFKDQSAAEIGDKSWLYLRTLKQEEETHIRNEQVRQRAKECSQALSLILDIDHGKPVKNALDLKFDMEQLKDSIDREKIAVIGHSFGGATVIQTLSEDQRFRCGIALDAWMFPLGDEVYSRIPQPLFFINSEYFQYPANIIKMKKCYSPDKERKMITIRGSVHQNFADFTFATGKIIGHMLKLKGDIDSNVAIDLSNKASLAFLQKHLGLHKDFDQWDCLIEGDDENLIPGTNINTTNQHIMLQNSSGIEKYN
B5: D286N: PAF-AH amino acid substitution product expressed in E. coli (protein)
chain: MVPPKLHVLFCLCGCLAVVYPFDWQYINPVAHMKSSAWVNKIQVLMAAASFGQTKIPRGNGPYSVGCTDLMFDHTNKGTFLRLYYPSQDNDRLDTLWIPNKEYFWGLSKFLGTHWLMGNILRLLFGSMTTPANWNSPLRPGEKYPLVVFSHGLGAFRTLYSAIGIDLASHGFIVAAVEHRDRSASATYYFKDQSAAEIGDKSWLYLRTLKQEEETHIRNEQVRQRAKECSQALSLILDIDHGKPVKNALDLKFDMEQLKDSIDREKIAVIGHSFGGATVIQTLSENQRFRCGIALDAWMFPLGDEVYSRIPQPLFFINSEYFQYPANIIKMKKCYSPDKERKMITIRGSVHQNFADFTFATGKIIGHMLKLKGDIDSNVAIDLSNKASLAFLQKHLGLHKDFDQWDCLIEGDDENLIPGTNINTTNQHIMLQNSSGIEKYN
B6: D296A: PAF-AH amino acid substitution product expressed in E. coli (protein)
chain: MVPPKLHVLFCLCGCLAVVYPFDWQYINPVAHMKSSAWVNKIQVLMAAASFGQTKIPRGNGPYSVGCTDLMFDHTNKGTFLRLYYPSQDNDRLDTLWIPNKEYFWGLSKFLGTHWLMGNILRLLFGSMTTPANWNSPLRPGEKYPLVVFSHGLGAFRTLYSAIGIDLASHGFIVAAVEHRDRSASATYYFKDQSAAEIGDKSWLYLRTLKQEEETHIRNEQVRQRAKECSQALSLILDIDHGKPVKNALDLKFDMEQLKDSIDREKIAVIGHSFGGATVIQTLSEDQRFRCGIALAAWMFPLGDEVYSRIPQPLFFINSEYFQYPANIIKMKKCYSPDKERKMITIRGSVHQNFADFTFATGKIIGHMLKLKGDIDSNVAIDLSNKASLAFLQKHLGLHKDFDQWDCLIEGDDENLIPGTNINTTNQHIMLQNSSGIEKYN
B7: S273A: PAF-AH amino acid substitution product expressed in E. coli (protein)
chain: MVPPKLHVLFCLCGCLAVVYPFDWQYINPVAHMKSSAWVNKIQVLMAAASFGQTKIPRGNGPYSVGCTDLMFDHTNKGTFLRLYYPSQDNDRLDTLWIPNKEYFWGLSKFLGTHWLMGNILRLLFGSMTTPANWNSPLRPGEKYPLVVFSHGLGAFRTLYSAIGIDLASHGFIVAAVEHRDRSASATYYFKDQSAAEIGDKSWLYLRTLKQEEETHIRNEQVRQRAKECSQALSLILDIDHGKPVKNALDLKFDMEQLKDSIDREKIAVIGHAFGGATVIQTLSEDQRFRCGIALDAWMFPLGDEVYSRIPQPLFFINSEYFQYPANIIKMKKCYSPDKERKMITIRGSVHQNFADFTFATGKIIGHMLKLKGDIDSNVAIDLSNKASLAFLQKHLGLHKDFDQWDCLIEGDDENLIPGTNINTTNQHIMLQNSSGIEKYN

This test can be described thus: PAF-AH activity of amino acid substitution products expressed in E. coli. Type of test: biochemical. As to conditions: point mutants expressed in E. coli. An excerpt: By site-directed mutagenesis and PCR, individual codons of the human PAF-AH coding sequence were modified to encode alanine residues and were expressed in E. coli. […] The distances between active site residues is similar for PAF-AH (Ser to Asp, 23 amino acids; Ser to His, 78 amino acids) and other lipases. […] Cysteines are often critical for the functional integrity of proteins because of their capacity to form disulfide bonds. The plasma PAF-AH enzyme contains five cysteines. To determine whether any of the five is critical for enzyme actvity, each cysteine was mutated individually to a serine and the resulting mutants were expressed in E. coli. As shown below in Table 8, a significant but not total loss of PAF-AH activity resulted from the conversion of either Cys229, r Cys291 to serine. Therefore, these cysteines appear to be necessary for full PAF-AH activity. Other point mutations had little or no effect on PAF-AH catalytic activity. In Table 8, “++++” represent wild type PAF-AH activity of about 40-60 U/ml/OD600, “+++” represents about 20-40 U/ml/OD600 activity, “++” represents about 10-20 U/ml/OD600 activity, “+” represents 1-10 U/ml/OD600 activity, and “−” indicates <1 U/ml/OD600 activity.
To test whether this mutation crippled the enzyme, an E. coli expression construct containing the mutation was generated by methods similar to that described in Example 10. […] This amino acid substitution presumably results in a structural modification which causes the observed deficiency of activity and lack of immunoreactivity with the PAF-AH antibodies of the invention.
Regarding B1, the PAF-AH activity entry is “++++ (“++++” represent wild type PAF-AH activity of about 40-60 U/ml/OD600)”.
The entry for B2 is “+++ (“+++” represents about 20-40 U/ml/OD600 activity)”; for B3 it is “− (“−” indicates <1 U/ml/OD600 activity)”.
The entry for B4 is “++++ (“++++” represent wild type PAF-AH activity of about 40-60 U/ml/OD600)”; for B5 it is “++ (“++” represents about 10-20 U/ml/OD600 activity)”.
The entry for B6 is “− (“−” indicates <1 U/ml/OD600 activity)”; for B7 it is “− (“−” indicates <1 U/ml/OD600 activity)”.
